Measurements published in the RNAGym collection of RNA variant scans (doi:10.7554/elife.80360).

B1: CPEB3 Ribozyme (parent)
chain: GGGGGCCACAGCAGAAGCGUUCACGUCGCGGCCCCUGUCAGAUUCUGGUGAAUCUGCGAAUUCUGCUGU

Variants of: B1
Assay: self-cleavage, relative activity (ratio to wild type); higher = more cleavage; co-transcriptional

Row | Variant | self-cleavage
1 | G3A U69C | 0.97
2 | G3U C63A | 0.0888
3 | G3U C63G | 0.1
4 | G4A U53G | 0.517
5 | G4A U53A | 0.602
6 | G4A U36A | 0.13
7 | G3C A10U | 0.334
8 | G4A G41C | 0.341
9 | G4A G41U | 0.525
10 | G3U G47A | 0.192
11 | G3C A60U | 0.0697
12 | G4A C7G | 0.0338
13 | G3A G5C | 0.123
14 | G3A G31U | 0.154
15 | G3A G37C | 0.126
16 | G3A G30U | 0.107
17 | G3U G5U | 0.0488
18 | G4A A10U | 0.941
19 | G3U C32G | 0.054
20 | G3U C32A | 0.0393
21 | G3C G30U | 0.0314

Row | Variant | self-cleavage
22 | G3U A40C | 0.0469
23 | G4C G30C | 0.0792
24 | G3U G65U | 0.101
25 | G3U A59G | 0.0478
26 | G3C C33G | 0.0238
27 | G3A C35A | 0.102
28 | G3C U44C | 0.132
29 | G4A U62G | 0.419
30 | G4A U62A | 0.601
31 | G4A A40G | 0.773
32 | G4A A40U | 0.48
33 | G4C A15U | 0.0935
34 | G3C G19U | 0.0242
35 | G3C U67C | 0.218
36 | G3C C24A | 0.0571
37 | G4A G48C | 0.802
38 | G4A G48U | 0.919
39 | G3U A51G | 0.0734
40 | G3C U53A | 0.0705
41 | G4A G19A | 0.092
42 | G3A G48C | 0.698

Row | Variant | self-cleavage
43 | G3A A59C | 0.199
44 | G3C U69A | 0.209
45 | G3C G68U | 0.374
46 | G4C G68A | 0.976
47 | G4C G68C | 0.941
48 | G3U G68C | 0.548
49 | G3U G68U | 0.546
50 | G4C C27G | 0.108
51 | G4C C27A | 0.0979
52 | G4C U69C | 0.958
53 | G3A G41C | 0.198
54 | G3U G58U | 0.189
55 | G3U G14A | 0.0323
56 | G3A C27U | 0.0889
57 | G3A C27A | 0.153
58 | G3A C27G | 0.056
59 | G3U U43G | 0.0687
60 | G4A A16C | 0.0992
61 | G4A A51G | 0.787
62 | G4A A51C | 0.702
63 | G3U A10G | 0.158

Row | Variant | self-cleavage
64 | G3C C35A | 0.0343
65 | G3C C35G | 0.0557
66 | G4C U53G | 0.142
67 | G4A C32U | 0.495
68 | G4A C32G | 0.171
69 | G3C U49A | 0.168
70 | G3U U49G | 0.0811
71 | G3U C33G | 0.0603
72 | G4A | 0.898
73 | G4U | 0.806
74 | G4C | 0.69
75 | G4A U20C | 0.128
76 | G4A G28A | 0.117
77 | G3A C18A | 0.066
78 | G3A C18G | 0.0813
79 | G4A G14A | 0.401
80 | G4A C34G | 0.16
81 | G4C G31A | 0.179
82 | G4C G31U | 0.179
83 | G4C U43C | 0.406
